Measurements as given in paper PMC5658772 (2017).

Target: T1, ZIKV envelope protein domain III-hFc fusion protein (ZIKV-DIII-hFc) (Zika virus strain MR766, UniProt Q32ZE1)
T1 chain: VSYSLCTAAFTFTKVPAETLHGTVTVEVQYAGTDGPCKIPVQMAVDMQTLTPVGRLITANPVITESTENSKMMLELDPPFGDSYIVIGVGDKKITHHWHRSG
Experiment: BLI

B1: m302 IgG1 (antibody, V domains shown)
VH: EVQLVQSGGGLVKPGRSLRLSCAASGFTFSSYAMHWVRQAPGKGLEWVAVISYDGSNKYYADSVKGRFTISRDNSKNTLYLQMNSLRAEDTAVYYCAREIGDYYYYGMDVWGQGTLVTVSS
VL: EIVMTQSPATLSLSPGERATLSCRASQSVSSYLAWYQQKPGQAPRLLIYDASNRATGIPARFSGSGSGTDFTLTISSLQPEDFATYYCQQSYSTPLTFGGGTKVEIK
**Q.** How did the koff turn out when B1 was run?
**A.** 0.00177 s⁻¹
